Data reported in US5635597A (Affymax Technologies, N.V., priority 1994, dated 1997).
One block for each molecule: values may come before it. Where a SMILES comes first, the peptide text is derived from it.

Columns and labels:
α subunit = target: T1, α subunit (Homo sapiens, UniProt P01589); assay: Phage ELISA competition against phage-bearing […]; format: binding; settings: phage ELISA format against phage-bearing FVRCTASGCV
T1 construct: was produced in recombinant host cells in a truncated form; made in house; host or cells: recombinant host cells (baculovirus system or PIG-tailed CHO cells named as options)
T1 sequence (P01589 22-240 limits assumed): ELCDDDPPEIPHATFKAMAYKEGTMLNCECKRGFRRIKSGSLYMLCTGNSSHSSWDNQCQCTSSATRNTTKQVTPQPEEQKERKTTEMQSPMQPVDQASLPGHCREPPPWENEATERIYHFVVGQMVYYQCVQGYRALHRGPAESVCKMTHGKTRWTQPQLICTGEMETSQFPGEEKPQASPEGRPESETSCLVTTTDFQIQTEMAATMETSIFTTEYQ
Text: (§1) After several rounds of affinity enrichment, the phage or plasmids and accompanying peptides were examined by ELISA to determine if the peptides bind specifically to the receptor. […] By comparing test wells with control wells containing an unrelated receptor, one can determine whether a peptide binds to IL-2Rα (or IL-2Rβ, γ, αβ, or βγ) specifically.

immobilized IL-2Rβ = target: T2, immobilized IL-2Rβ (Homo sapiens, UniProt P14784); assay: pVIII 12-mer phage screen against immobilized IL-2Rβ; format: binding; settings: pVIII-bound 12-mers
T2 construct: was produced in recombinant host cells in a truncated form; made in house; host or cells: recombinant host cells (baculovirus system or PIG-tailed CHO cells named as options)
T2 sequence (P14784 27-240 limits assumed): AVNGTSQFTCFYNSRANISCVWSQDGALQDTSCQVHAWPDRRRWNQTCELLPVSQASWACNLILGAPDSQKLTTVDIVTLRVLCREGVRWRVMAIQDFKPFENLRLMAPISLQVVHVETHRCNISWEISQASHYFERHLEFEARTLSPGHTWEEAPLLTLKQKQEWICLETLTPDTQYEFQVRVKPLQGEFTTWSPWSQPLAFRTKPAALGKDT
Text: (§2) In the systems employed, the random peptides were presented either on the surface of a phage particle, as part of a fusion protein comprising either the pIII or the pVIII coat protein of a phage fd derivative (peptides on phage), or as a fusion protein with LacI bound to a plasmid (peptides on plasmids). The phage or plasmids, including the DNA encoding the peptides, were identified and isolated by an affinity enrichment process using immobilized IL-2Rα, IL-2Rβ, IL-2Rγ and the αβ heterodimer. The affinity enrichment process, sometimes called "panning", involves multiple rounds of incubating the phage or plasmids with immobilized receptor, collecting the phage or plasmids that bind to the receptor (along with the accompanying DNA), and producing more of the phage or plasmids (along with accompanying LacI-peptide fusion protein) collected.
(§3) After several rounds of affinity enrichment, the phage or plasmids and accompanying peptides were examined by ELISA to determine if the peptides bind specifically to the receptor. This assay was carried out in a manner similar to the procedures used in the affinity enrichment process, except that after removing unbound phage (or plasmids), the wells were typically treated with rabbit anti-phage antibody, then with alkaline phosphatase (AP)-conjugated goat anti-rabbit antibody, or with anti-LacI-AP, and then the amount of alkaline phosphatase in each well was determined by standard methods. By comparing test wells with control wells containing an unrelated receptor, one can determine whether a peptide binds to IL-2Rα (or IL-2Rβ, γ, αβ, or βγ) specifically. Peptides found to bind specifically to the receptor were then synthesized as the free peptide (no phage) and tested for binding against (1) immobilized soluble receptor, (2) receptor expressed on the surface of cells, (3) the heterotrimer form of the receptor (i.e., IL-2Rαβγ) expressed on the surface of cells and (4) the two heterodimers IL-2Rαβ and IL-2Rβγ.

IL-2Rαβ heterodimer = target: T3, IL-2Rαβ heterodimer (Homo sapiens, UniProt P01589+P14784); assay: pVIII 10-mer phage screen / ELISA against IL-2Rαβ heterodimer; format: binding; settings: pVIII-bound 10-mers on phage
T3 construct: was produced in recombinant host cells in a truncated form; made in house; host or cells: recombinant host cells (baculovirus system or PIG-tailed CHO cells named as options)
T3 sequence (P01589 22-240 limits assumed): T1 sequence (P01589 22-240 limits assumed)
T3 sequence (P14784 27-240 limits assumed): T2 sequence (P14784 27-240 limits assumed)
Text: as §2, §3
The immobilized receptor used in the affinity enrichment and ELISA procedures was produced in recombinant host cells in a truncated form. This truncated receptor molecule can be produced in a variety of different forms and host cells. One useful form of receptor is constructed by expressing the protein as a soluble protein in baculovirus transformed host cells using standard methods; another useful form is constructed with a signal peptide for protein secretion and for glycophospholipid membrane anchor attachment. This form of anchor attachment is called "PIG-tailing;"see Caras and Weddell, 3 Mar. 1989, Science 243:1196-1198, and Lin et al., 10 Aug. 1990, Science 249:677-679, each of which is incorporated herein by reference. Using the PIG-tailing system, one can cleave the receptor from the surface of the cells expressing receptor (e.g., transformed Chinese hamster ovary (CHO) cells selected for high level expression of receptor with a cell sorter) with phospholipase C. The cleaved receptor still comprises a carboxy terminal sequence of amino acids, called the "HPAP tail", from the signal for membrane attachment and can be immobilized without further purification.
The recombinant receptor protein was immobilized by coating the wells of microtiter plates with an anti-HPAP tail antibody, blocking with bovine serum albumin (BSA) in PBS, and then binding recombinant, truncated receptor to the antibody. Using this procedure, one should perform the immobilization reaction in varying concentrations of the receptor to determine the optimum amount for a given preparation, because different preparations of recombinant protein often contain different amounts of the desired protein. […] Otherwise, unblocked antibody can bind undesired phage during the affinity enrichment procedure. […]

IL-2Rα = target: T4, IL-2Rα (Homo sapiens, UniProt P01589); assay: Phage screen of αβ heterodimer in presence of β-specific peptides: specific binding to IL-2Rα
T4 construct: was produced in recombinant host cells in a truncated form; made in house; host or cells: recombinant host cells (baculovirus system or PIG-tailed CHO cells named as options)
T4 sequence (P01589 22-240 limits assumed): T1 sequence (P01589 22-240 limits assumed)
Description: as §3
The αβ heterodimer was screened in the presence of each of the following peptides, […] (SEQ ID NO:65), […] (SEQ ID NO:66), […] (SEQ ID NO:67), […] (SEQ ID NO:68) and […] (SEQ ID NO:69) under standard conditions. […]

immobilized IL-2Rα = target: T5, immobilized IL-2Rα (Homo sapiens, UniProt P01589); assay: Blocking of IL-2 binding to immobilized IL-2Rα
T5 construct: was produced in recombinant host cells in a truncated form; made in house; host or cells: recombinant host cells (baculovirus system or PIG-tailed CHO cells named as options)
T5 sequence (P01589 22-240 limits assumed): T1 sequence (P01589 22-240 limits assumed)

β-subunit = target: T6, β-subunit (Homo sapiens, UniProt P14784); assay: Blocking of IL-2 binding to the β-subunit
T6 construct: was produced in recombinant host cells in a truncated form; made in house; host or cells: recombinant host cells (baculovirus system or PIG-tailed CHO cells named as options)
T6 sequence (P14784 27-240 limits assumed): T2 sequence (P14784 27-240 limits assumed)

αβ [1] = target: T7, αβ (Homo sapiens, UniProt P01589+P14784); assay: Binding to αβ subunits
T7 construct: was produced in recombinant host cells in a truncated form; made in house; host or cells: recombinant host cells (baculovirus system or PIG-tailed CHO cells named as options)
T7 sequence (P01589 22-240 limits assumed): T1 sequence (P01589 22-240 limits assumed)
T7 sequence (P14784 27-240 limits assumed): T2 sequence (P14784 27-240 limits assumed)
Description: as §3

βγ [2] = target: T8, βγ (Homo sapiens, UniProt P14784+P31785); assay: Binding to βγ subunits
T8 construct: was produced in recombinant host cells in a truncated form; made in house; host or cells: recombinant host cells (not fixed)
T8 sequence (P14784 27-240 limits assumed): T2 sequence (P14784 27-240 limits assumed)
T8 sequence (P31785 23-262 limits assumed): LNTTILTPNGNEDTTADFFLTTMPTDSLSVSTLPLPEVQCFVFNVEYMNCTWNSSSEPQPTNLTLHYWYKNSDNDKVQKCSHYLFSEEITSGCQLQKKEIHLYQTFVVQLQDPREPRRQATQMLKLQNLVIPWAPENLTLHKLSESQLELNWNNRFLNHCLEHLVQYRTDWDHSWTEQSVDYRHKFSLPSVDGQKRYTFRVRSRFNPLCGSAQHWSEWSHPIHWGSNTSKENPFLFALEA
Description: as §3

αβ [3] = target: T7, αβ; assay: Competition against phage-borne […], αβ heterodimer; format: binding; settings: free peptide
βγ [4] = target: T8, βγ; assay: Competition against phage-borne […], βγ heterodimer; format: binding; settings: free peptide
IL-2Rβ = target: T9, IL-2Rβ (Homo sapiens, UniProt P14784); assay: Colony lift procedure with tagged IL-2 receptors; format: binding
T9 construct: tag (kind not specified; detected enzymatically or on X-ray film)
T9 sequence (P14784 27-240 limits assumed): T2 sequence (P14784 27-240 limits assumed)
Text: Peptides specific for the IL-2Rα, β and γ subunits were also discovered using a "colony lift" procedure, wherein cells were infected with DNA encoding for random amino acid sequences as described above. The phage was then allowed to grow on arabinose media to induce expression of the encoded peptides. […] The filters were washed and dried, and the tagged colonies were detected enzymatically, or by exposure to X-ray film, to identify those receptors which bound to the immobilized peptide-expressing phage particles.
Sequences which bound to IL-2Rβ have the general sequence RDCSX81AX82 LGELC, wherein X81 is V, E or D; and X82 is V or A. Preferred sequences are […], […] (SEQ ID NO: ), and […] (SEQ ID NO: ).

[5] = target: T10, immobilized IL-2Rγ monomer (Homo sapiens, UniProt P31785); assay: Phage ELISA against immobilized IL-2Rγ monomer; format: binding; settings: high receptor density
T10 construct: was produced in recombinant host cells in a truncated form; made in house; host or cells: recombinant host cells (not fixed)
T10 sequence (P31785 23-262 limits assumed): T8 sequence (P31785 23-262 limits assumed)
Description: as §3
(§4) Random pVIII 10-mer and 11-mer libraries were also screened against immobilized IL-2Rγ monomer in a phage ELISA assay at high receptor density. […] These peptides also bound to the βγ-subunit and competed with radiolabelled ligand.

βγ-subunit [6] = target: T11, βγ-subunit (Homo sapiens, UniProt P14784+P31785); assay: Binding to βγ-subunit and competition with radiolabelled ligand
T11 construct: was produced in recombinant host cells in a truncated form; made in house; host or cells: recombinant host cells (not fixed)
T11 sequence (P14784 27-240 limits assumed): T2 sequence (P14784 27-240 limits assumed)
T11 sequence (P31785 23-262 limits assumed): T8 sequence (P31785 23-262 limits assumed)
Text: as §4

βγ-subunit [7] = target: T11, βγ-subunit; assay: Phage-ELISA competition with phage bearing peptides, βγ-subunit; format: binding; settings: phage-ELISA assay
Text: as §1
Random pVIII 10-mer and 11-mer libraries were also screened against immobilized IL-2Rγ monomer in a phage ELISA assay at high receptor density.

competition for binding with respect to the α subunit (α subunit): compete for binding
Molecule: FVRCTASGCV

subunit specificity of clones (immobilized IL-2Rβ): β-specific
Molecule: ARSDYGLGAIWP

binding to the αβ heterodimer (IL-2Rαβ heterodimer): bound
subunit specificity (IL-2Rαβ heterodimer): specific for the β subunit
Molecule: RWGDVGDMVV

binding to the αβ heterodimer (IL-2Rαβ heterodimer): bound
subunit specificity (IL-2Rαβ heterodimer): specific for the β subunit
Molecule: WDGPGLGEFF

specific binding to IL-2Rα (IL-2Rα): bound specifically
concentration at which IL-2 binding to immobilized IL-2Rα was blocked (immobilized IL-2Rα): 330 µM
Molecule: EVICGTDGCW

subunit specificity of clones (immobilized IL-2Rβ): β-specific
blocking IL-2 binding to the β-subunit (β-subunit): capable of blocking IL-2 binding
binding to αβ subunits (αβ [1]): able to bind
binding to βγ subunits (βγ [2]): able to bind
competition against phage-born MDCSEAVLGELC for binding (αβ [3]): competitive
competition against phage-born MDCSEAVLGELC for binding (βγ [4]): competitive
Molecule: CSCC[C@H](N)C(=O)N[C@@H](CC(=O)O)C(=O)N[C@@H](CS)C(=O)N[C@@H](CO)C(=O)N[C@@H](CCC(=O)O)C(=O)N[C@@H](C)C(=O)N[C@H](C(=O)N[C@@H](CC(C)C)C(=O)NCC(=O)N[C@@H](CCC(=O)O)C(=O)N[C@@H](CC(C)C)C(=O)N[C@@H](CS)C(=O)O)C(C)C (H-MDCSEAVLGELC-OH; N-terminus and C-terminus assumed)

binding to the αβ heterodimer (IL-2Rαβ heterodimer): bound
subunit specificity (IL-2Rαβ heterodimer): specific for the β subunit
Molecule: RYGEVGDLLP

specific binding to IL-2Rα (IL-2Rα): bound specifically
concentration at which IL-2 binding to immobilized IL-2Rα was blocked (immobilized IL-2Rα): 110 µM
Molecule: SVRCSASGCV

subunit specificity of clones (immobilized IL-2Rβ): β-specific
Molecule: HCLDMGCTFPVW

Molecule: RDCSVAVLGELC
binding to IL-2Rβ (IL-2Rβ): bound

Molecule: RDCSDAVLEGLC
binding to IL-2Rβ (IL-2Rβ): bound

subunit specificity of clones (immobilized IL-2Rβ): β-specific
Molecule: RACRVMPCLPDL

binding to the αβ heterodimer (IL-2Rαβ heterodimer): bound
subunit specificity (IL-2Rαβ heterodimer): specific for the β subunit
Molecule: ARYGDVGSLV

binding to the αβ heterodimer (IL-2Rαβ heterodimer): bound
subunit specificity (IL-2Rαβ heterodimer): specific for the β subunit
Molecule: SGCGRELDWC

Molecule: RDCSEARLGELC
binding to IL-2Rβ (IL-2Rβ): bound

specific binding to IL-2Rγ [5]: bind to that subunit specifically
binding to the βγ-subunit (βγ-subunit [6]): bound
competition with radiolabelled ligand (βγ-subunit [6]; βγ-subunit): competed
competition with phage bearing peptides in binding to the βγ-subunit (βγ-subunit [7]): compete
Molecule: CGTQEACFGLL
